Assay results as given in paper PMC2818375.

Biological target: M2 muscarinic receptor fused to CFP (M2R-CFP) (UniProt P08172)
Assay: FRET or BRET

Sequence of UniProt P08172 (P08172 whole entry, the tested form may be a part): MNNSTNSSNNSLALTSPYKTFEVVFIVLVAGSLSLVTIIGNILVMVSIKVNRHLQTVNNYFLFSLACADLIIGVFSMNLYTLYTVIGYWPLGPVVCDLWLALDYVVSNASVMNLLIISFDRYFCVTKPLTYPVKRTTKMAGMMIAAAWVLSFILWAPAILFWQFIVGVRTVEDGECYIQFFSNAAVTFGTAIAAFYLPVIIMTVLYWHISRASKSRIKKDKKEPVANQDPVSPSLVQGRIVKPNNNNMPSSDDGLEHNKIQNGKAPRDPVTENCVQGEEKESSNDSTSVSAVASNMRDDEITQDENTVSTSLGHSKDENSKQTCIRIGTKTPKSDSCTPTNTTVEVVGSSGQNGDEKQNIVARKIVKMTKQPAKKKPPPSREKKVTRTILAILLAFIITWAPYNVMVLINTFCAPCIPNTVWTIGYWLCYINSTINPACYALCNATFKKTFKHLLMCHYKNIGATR

- %FRET: 6 %FRET
Substance: GBR1R2-YFP chimera (N-terminal and transmembrane domains of GBR1, C-terminal domain of GBR2) (receptor)
